Measurements published in patent publication US6605426B1, “Compounds, methods of screening, and in vitro and in vivo uses involving anti-apoptotic genes and anti-apoptotic gene products” (priority 1998, dated 2003).

B1: pUL37Smyc: pUL37S fused at its C-terminus with a c-myc-epitope tag; constitutively expressed in HeLa/UL37x1#3 cells (protein)
chain: MSPVYVNLLGSVGLLAFWYFSYRWIQRKRLEDPLPPWLRKKKACALTRRSRHRLRRQHGVIDGENSETERSVDLVAALLAEAGEESVTEDTEREDTEEEREDEEEENEARTPEVNPIDAEGLSGLAREACEALKKALRRHRFLWQRRQRARMLQHNGPQQSHQ
B2: pUL36AD169-early: pUL36 of an early (pre-1982) passage of HCMV strain AD169; Cys131 (protein)
chain: MDDLRDTLMAYGCIAIRAGDFNGLNDFLEQECGTRLHVAWPERCFIQLRSRSALGPFVGKMGTVCSQGAYVCCQEYLHPFGFVEGPGFMRYQLIVLIGQRGGIYCYDDLRDCVYELAPTMKDFLRNGFRHCDHFHTMRDYQRPMVQYDDYWNAVMLYRGDVESLSAEVTKRGYASYTIDDPFDECPDTHFAFWTHNTEVMKFKETSFSVVRAGGSIQTMELMIRTVPRITCYHQLLGALGHEVPERKEFLVRQYVLVDTFGVVYGYDPAMDAVYRLAEDVVMFTCVMGKKGHRNHRFSGRREAIVRLEKTPTCQHPKKTPDPMIMFDEDDDDELSLPRNVMTHEEAESRLYDAITENLMHCVKLVTTDSPLATHLWPQELQALCDSPALSLCTDDVEGVRQKLRARTGSLHHFELSYRFHDEDPETYMGFLWDIPSCDRCVRRRRFKVCDVGRRHIIPGAANGMPPLTPPHVYMNN

Key:
HeLa cells [1] = assay: Apoptosis resistance of HeLa clones stably expressing pUL37Smyc; format: cell-based, human
Excerpt: In a preferred embodiment, HeLa clones continuously (as opposed to transiently) express the version of pUL37s tagged with the C-terminal myc-peptide (amino acids 408-421 within the carboxy terminal domain of human c-Myc) generated by stable transfection with either an expression plasmid containing UL37S alone, or in a mixture with an expression plasmid coding for puromycin-N-acetyl-transferase such as pPUR (Clontech, Palo Alto, Calif.). Following the transfection, drug-resistant clones are selected in medium containing G418 (0.7 mg/mL) or in medium containing puromycin (1 μg/ml), and then the clones are screened for the expression of pUL36-myc-tagged and pUL37S-myc-tagged polypeptides, respectively, by Western analysis with 9E10 anti-Myc antibody (Santa Cruz Biotechnology, Inc., Santa Cruz, Calif.). In using this approach, the present inventors isolated four clones that expressed pUL37S-myc (designated as HeLa/UL37S). These clones were then used to conduct further studies reported in Example 9. Also, four G418-resistant clones of HeLa cells stably transfected with pcDNA3/myc (empty vector, control) were isolated by similar procedures, two with G418 (HeLa/G418) and two with puromycin (HeLa/puro), and used as a negative control in the Western blot analysis and experiments studying the anti-apoptotic activity of the clones.
Three transfected G418-resistant HeLa clones were isolated that stably express pUL37S myc (designated HeLa/UL37×1myc #3, #8, and #N1), as detected by Western blot analysis with the 9E10 anti-myc antibody (Evan et al., 1985, which is incorporated herein by reference) (FIG. 8A). In parallel, three HeLa clones were isolated following stable transfections with the pcDNA3 vector alone (designated HeLa/pcDNA3-A, -B, and —C). […] While virtually all of the HeLa/pcDNA3-A control cells died following an overnight exposure to anti-Fas antibody+CHX or TNF-α+CHX, only a small fraction of the pUL37Smyc-expressing cells underwent apoptosis after an overnight exposure to these agents FIG. 8B). Moreover, most of the pUL37Smyc-expressing cells continued to survive for more than 3 days of culturing in the presence of either anti-Fas antibody+CHX or TNF-α+CHX.
The present inventors tested whether pUL37S can inhibit apoptosis triggered by other stimuli. […] Thus, pUL37S is a broadly acting inhibitor of apoptosis that can inhibit or diminish cell death induced by a variety of cytotoxic agents.

HeLa/UL37x1#3 cells = assay: Dominant-negative assay: pUL37S deletion mutants in HeLa/UL37x1#3 cells, β-galactosidase ELISA; format: cell-based, human; conditions: HeLa/UL37S #3 cells transfected with the empty vector; anti-Fas plus cyclohexamide 24 h
Procedure: 24 h after co-transfection, the cells were either exposed for an additional 24 h to anti-Fas antibody, in the presence of cyclohexamide (FIGS. 11A and 11B, closed bars) or left untreated (FIGS. 11A and 11B, open bars). The surviving cells were than quantified by determining the β-galactosidase levels with a β-galactosidase ELISA (Boehringer Mannheim). […] The control HeLa/pcDNA3-A cells were sensitive to Fas-mediated apoptosis, and this sensitivity was not affected by the expression of the deletion mutants.
Apoptosis was induced in the cell line HeLa/UL37x1#3 (HeLa cells transfected with UL37x1, clone No. 3), that constitutively expresses pUL37Smyc and is resistant to apoptosis, through the addition of anti-Fas antibodies and cyclohexamide to the culture medium. To identify dominant-negative mutants, HeLa/UL37x1#3 cells were co-transfected with the lacZ (encoding β-galactosidase) indicator plasmid vector, together with either an expression vector for a pUL37S deletion mutant or the empty plasmid vector, pcDNA3. […]
One day after the transfection, cells were treated with anti-Fas antibody plus cyclohexamide for 24 h. Cell survival was then assessed by measuring spectrophotometrically the level of β-galactosidase expression, as described in Example 1. […]

pro-domain of caspase 8 = target: T1, pro-domain of caspase 8 (Homo sapiens, UniProt Q14790); assay: Co-precipitation in co-transfected 293T cells (anti-HA IP, anti-myc blot); format: binding; conditions: HA-tagged pro-domain
T1 construct: a truncated pro-caspase 8, containing only its HA-tagged pro-domain region; expressed in transfected cells; host or cells: 293T cells co-transfected with pUL36AD169-earlymyc or pUL36AD169-ATCCmyc
T1 sequence (Q14790 1-216 limits assumed): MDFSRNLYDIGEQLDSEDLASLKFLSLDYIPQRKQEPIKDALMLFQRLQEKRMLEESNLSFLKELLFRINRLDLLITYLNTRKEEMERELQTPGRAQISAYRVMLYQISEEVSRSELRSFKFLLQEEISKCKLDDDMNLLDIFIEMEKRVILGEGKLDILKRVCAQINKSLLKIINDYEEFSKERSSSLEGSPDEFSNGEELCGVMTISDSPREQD
Excerpt: (§1) Pro-caspase 8 was detected on the pUL36-containing beads (lane 4), but not on the control beads (lane 2), while the lysates from all these cells contained similar amounts of pro-caspase 8 (compare lanes 1 and 3). […] To test this hypothesis, 293T cells were co-transfected with pUL36AD169-earlymyc and with a truncated pro-caspase 8, containing only its HA-tagged pro-domain region. pUL36AD169-earlymyc is expressed by a fusion gene comprising a UL36 ORF isolated from a pre-1982 passage of CMVAD169 and the carboxy-linked myc epitope tag. The cells were lysed as above, and anti-HA antibody was used to immunoprecipitate the caspase 8 pro-domain. Anti-myc antibodies were then used to probe a Western blot for the inclusion of pUL36 with the immunoprecipitated material. Control cells were transfected with pUL36AD169-earlymyc with either the empty vector (negative control), or with HA-tagged pro-caspase 8 (positive control). Additional cells were co-transfected with the non-functional mutant pUL36AD169-ATCCmyc with either the HA-pro-domain, the empty vector or HA-pro-caspase 8.

[2] = target: T2, full-length pro-caspase 8 (Homo sapiens, UniProt Q14790); assay: as above; format: binding; conditions: HA-tagged pro-caspase 8
T2 construct: HA-tagged full-length pro-caspase 8 (lanes 5 and 6); expressed in transfected cells; host or cells: 293T cells co-transfected with pUL36AD169-earlymyc or pUL36AD169-ATCCmyc
T2 sequence (Q14790 whole entry): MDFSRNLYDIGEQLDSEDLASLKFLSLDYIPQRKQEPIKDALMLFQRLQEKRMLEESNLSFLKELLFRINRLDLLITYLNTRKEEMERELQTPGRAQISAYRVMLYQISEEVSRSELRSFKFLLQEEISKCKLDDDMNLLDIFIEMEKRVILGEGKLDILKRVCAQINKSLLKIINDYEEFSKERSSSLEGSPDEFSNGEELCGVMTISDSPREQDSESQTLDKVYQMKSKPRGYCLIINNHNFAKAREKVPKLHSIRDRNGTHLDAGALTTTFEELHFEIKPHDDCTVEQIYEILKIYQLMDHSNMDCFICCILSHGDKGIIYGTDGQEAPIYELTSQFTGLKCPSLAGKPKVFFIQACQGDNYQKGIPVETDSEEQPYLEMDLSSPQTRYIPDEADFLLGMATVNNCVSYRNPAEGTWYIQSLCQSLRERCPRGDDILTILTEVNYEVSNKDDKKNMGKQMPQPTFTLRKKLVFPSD
Excerpt: as §1

HeLa cells [3] = assay: Transient transfection apoptosis assay in HeLa cells (anti-Fas antibody+CHX or TNF-α+CHX); format: cell-based, human; conditions: transiently transfected HeLa cells; anti-Fas antibody+CHX 24 h; surviving cells scored
Procedure: Tumor necrosis factor receptor 1 (TNF-R1)-mediated apoptosis was induced by exposure of HeLa and MRC-5 cells to tumor necrosis factor-α (TNF-α) (Sigma, 10-60 ng/mL)+CHX (10-30 μg/mL). Fas-mediated apoptosis was induced by exposure of cells to an anti-Fas antibody (Coulter, 7C11 antibody at 0.2-4 μg/mL)+CHX (10-30 μg/mL). The degree of cell death was determined by the visual scoring of surviving cells, in representative fields, under a phase microscope. A similar degree of cell death occurred in fibroblasts when examined 5 to 28 h after the start of exposure, or a similar degree of cell death occurred in HeLa cells when examined 9-28 h after the start of exposure. Further, a similar degree of cell death for a given reagent was produced when any concentration within the range indicated above was used.
The degree of cell death in cells transfected with an indicator plasmid expressing E. coli β-galactosidase was determined by either a β-galactosidase ELISA (Boehringer Mannheim), in accordance with the manufacturer's recommendations, or by visually scoring, under a microscope, positive blue cells, expressing β-galactosidase, after staining them with X-gal.
HeLa cells were transiently co-transfected with an expression plasmid vector, pME18S, carrying a polynucleotide sequence encoding IE1 or IE2 (FIG. 5, “IE1” and “IE2,” respectively), and a vector carrying the β-galactosidase gene (pCMVβ, Clontech). As a positive control, HeLa cells were transiently co-transfected with pCMVβ and a vector carrying a polynucleotide sequence encoding an anti-apoptotic polypeptide, such as the adenovirus E1B 19K or baculovirus p35.
Expression of IE1 (approx. 72 kDa) and IE2 (approx. 86 kDa) in the transfected HeLa cells was confirmed by Western blot analysis, by immunofluorescence visually examined under a fluorescence microscope, and by transactivation activity which led to an elevation of the vector-CMV-promoter-driven β-galactosidase expression which was increased 2- to 5-fold, as measured by a β-galactosidase ELISA (data not shown). Apoptosis was induced by incubating the transfected cells for 24 h with either TNF-α+CHX, or anti-Fas antibody+CHX. The surviving cells were stained with X-gal, a chromogenic substrate of β-galactosidase, and then the blue-stained cells were scored (FIG. 5).
To identify HCMV genes that can suppress apoptosis induced by Fas-ligation, the present inventors established a transient transfection assay in HeLa cells. The HeLa cells can be transfected at much higher efficiency than MRC-5 cells and are similar in their sensitivity towards anti-Fas antibody and TNF-α treatment. Enhanced survival of HeLa cells following anti-Fas antibody+CHX treatment was detected by elevated β-galactosidase (β-gal) levels produced by a transfected β-gal marker plasmid.
The deletion mutants were transiently expressed in HeLa cells, cultured in DMEM supplemented with 10% fetal bovine serum, and assayed for their ability to block Fas- or TNF-R1-mediated apoptosis. Transfections and apoptosis assays were performed as previously described (Goldmacher et al., 1999). Briefly, cells were transiently transfected with the expression vectors (purified with a Qiagen plasmid purification kit) using SuperFect transfection reagent (Qiagen) in accordance with the manufacturer's protocol. After 24 hours, cells were exposed to anti-Fas 7C11 antibody (Coulter, 0.5 μg/ml)+cyclohexamide (Sigma, 10 μg/ml) for 24 hours.
A genomic DNA library was cloned into pZeoSV2(+) plasmid (Invitrogen). Ten cosmids, pCM1007, pCM1015, pCM1017, pCM1029, pCM1035, pCM1039, pCM1040, pCM1052, pCM1058, and pCM1072, covering the AD169 genome (Fleckenstein et al., 1982, which is incorporated herein by reference), and pON2601 Toledo cosmid (Cha et al., 1996, which is incorporated herein by reference) containing unique HCMV sequences, were mixed in equal amounts and partially digested with Sau3AI (New England Biolabs, Beverly, Mass.). […]

Molecule	resistance to apoptosis induced by doxorubicin (HeLa cells [1]; doxorubicin 1, 3, and 6 μM, 24 h, trypan blue exclusion)	duration of survival in culture with apoptotic stimulus (HeLa cells [1]; in the presence of either anti-Fas antibody+CHX or TNF-α+CHX)	resistance to TNF-R1-mediated apoptosis (HeLa cells [1]; stable HeLa clones, TNF-α+CHX)	resistance to Fas-mediated apoptosis (HeLa cells [1]; stable HeLa clones, anti-Fas antibody+CHX)	β-gal signal compared to untreated cells (HeLa/UL37x1#3 cells)	co-precipitation with the pro-domain of caspase 8 (pro-domain of caspase 8)	co-precipitation with full-length pro-caspase 8 [2]	anti-apoptotic activity: protection against Fas-mediated apoptosis (HeLa cells [3])
B1	substantially more resistant	more than 3 days	resistant	resistant	about 40%			
B2						co-precipitated	co-precipitated	effective death suppressors
